Data taken from patent US20250002998A1.

How the values were obtained:
[1] = target: feline FAP in formalin fixed, paraffin embedded feline tissue sections (feline); test: immunohistochemistry on a formalin fixed, paraffin embedded kidney section of cat #20-10270 without fibrosis (fibrosis score 0); the score tells that no FAP was detected in this tissue, not that the antibody fails to bind FAP
[2] = target: feline FAP in formalin fixed, paraffin embedded feline tissue sections (feline); test: immunohistochemistry on a formalin fixed, paraffin embedded kidney section of cat #20-00774 with a higher level of fibrosis (fibrosis score 3)
[3] = target: feline FAP in formalin fixed, paraffin embedded feline tissue sections (feline); test: immunohistochemistry on a formalin fixed, paraffin embedded kidney section of cat #20-01692 with a low level of fibrosis (fibrosis score 1)
[4] = target: feline FAP in formalin fixed, paraffin embedded feline tissue sections (feline); test: immunohistochemistry on a formalin fixed, paraffin embedded kidney section of cat #20-06613 with a higher level of fibrosis (fibrosis score 3)

Substance: cross-reactive anti-FAP monoclonal antibody ab207178 from abcam
- FAP score (0-3) [1]: 0
- FAP score (0-3) [2]: 2
- FAP score (0-3) [3]: 1
- FAP score (0-3) [4]: 2
